Literature values in paper PMC4440832.

Legend:
[1] = target: BMP5 (Homo sapiens) (UniProt P22003); test: SPR
[2] = target: BMP6 (Homo sapiens) (UniProt P22004); test: SPR
[3] = target: BMP7 (Homo sapiens) (UniProt P18075); test: SPR
[4] = target: BMP2 (Homo sapiens) (UniProt P12643); test: SPR
[5] = target: BMP2 (Homo sapiens) (UniProt P12643); test: radioligand binding
[6] = target: BMP4 (Homo sapiens) (UniProt P12644); test: radioligand binding
[7] = target: BMP4 (Homo sapiens) (UniProt P12644); test: SPR
[8] = target: netrin (UniProt O95631)

Sequence of RGMa.Fc ECD (Q6PCX7 48-427): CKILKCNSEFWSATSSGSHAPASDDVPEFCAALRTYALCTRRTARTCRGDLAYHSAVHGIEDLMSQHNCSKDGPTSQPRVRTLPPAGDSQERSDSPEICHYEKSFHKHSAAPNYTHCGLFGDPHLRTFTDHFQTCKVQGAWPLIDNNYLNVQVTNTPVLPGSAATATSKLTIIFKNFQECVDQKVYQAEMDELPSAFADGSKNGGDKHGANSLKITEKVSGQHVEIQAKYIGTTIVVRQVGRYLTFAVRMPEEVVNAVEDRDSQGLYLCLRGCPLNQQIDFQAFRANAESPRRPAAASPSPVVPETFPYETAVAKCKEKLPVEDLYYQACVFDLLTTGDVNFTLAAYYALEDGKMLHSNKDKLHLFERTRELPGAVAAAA
Sequence of BMP6 (Homo sapiens) (P22004 375-513): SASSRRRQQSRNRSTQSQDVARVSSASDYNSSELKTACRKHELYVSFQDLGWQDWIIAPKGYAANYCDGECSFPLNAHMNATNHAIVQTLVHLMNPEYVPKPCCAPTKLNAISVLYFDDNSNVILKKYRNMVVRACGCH
Sequence of RGMb (Q6NW40 46-413): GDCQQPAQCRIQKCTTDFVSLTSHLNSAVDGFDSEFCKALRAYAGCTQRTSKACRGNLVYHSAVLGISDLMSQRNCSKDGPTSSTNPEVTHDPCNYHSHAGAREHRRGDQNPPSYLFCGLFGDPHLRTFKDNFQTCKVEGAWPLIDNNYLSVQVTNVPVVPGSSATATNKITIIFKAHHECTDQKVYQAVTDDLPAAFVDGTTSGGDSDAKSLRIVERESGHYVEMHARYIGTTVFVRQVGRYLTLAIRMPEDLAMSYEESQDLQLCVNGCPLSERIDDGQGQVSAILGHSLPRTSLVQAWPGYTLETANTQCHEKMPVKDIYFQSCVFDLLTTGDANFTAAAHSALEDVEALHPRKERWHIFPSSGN
Sequence of HJV (Q6ZVN8 36-400): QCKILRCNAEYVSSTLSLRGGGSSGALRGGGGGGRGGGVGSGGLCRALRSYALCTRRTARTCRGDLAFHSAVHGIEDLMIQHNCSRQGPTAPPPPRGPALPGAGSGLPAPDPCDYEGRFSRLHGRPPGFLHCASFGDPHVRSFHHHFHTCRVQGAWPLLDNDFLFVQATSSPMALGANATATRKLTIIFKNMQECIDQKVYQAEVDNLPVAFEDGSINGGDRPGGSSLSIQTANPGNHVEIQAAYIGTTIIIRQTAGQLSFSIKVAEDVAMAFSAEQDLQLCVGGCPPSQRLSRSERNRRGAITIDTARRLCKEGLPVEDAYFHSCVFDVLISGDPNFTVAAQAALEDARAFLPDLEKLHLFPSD
Sequence of BMP2 (Homo sapiens) (P12643 283-396): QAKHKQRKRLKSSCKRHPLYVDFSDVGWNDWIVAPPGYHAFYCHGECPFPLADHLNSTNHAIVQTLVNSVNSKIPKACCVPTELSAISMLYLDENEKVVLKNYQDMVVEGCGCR
Sequence of BMP4 (Homo sapiens) (P12644 293-408): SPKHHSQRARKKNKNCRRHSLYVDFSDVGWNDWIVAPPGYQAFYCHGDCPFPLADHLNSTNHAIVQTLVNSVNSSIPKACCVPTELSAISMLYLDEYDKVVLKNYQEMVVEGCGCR
Sequence of RGMa (Q96B86 48-424): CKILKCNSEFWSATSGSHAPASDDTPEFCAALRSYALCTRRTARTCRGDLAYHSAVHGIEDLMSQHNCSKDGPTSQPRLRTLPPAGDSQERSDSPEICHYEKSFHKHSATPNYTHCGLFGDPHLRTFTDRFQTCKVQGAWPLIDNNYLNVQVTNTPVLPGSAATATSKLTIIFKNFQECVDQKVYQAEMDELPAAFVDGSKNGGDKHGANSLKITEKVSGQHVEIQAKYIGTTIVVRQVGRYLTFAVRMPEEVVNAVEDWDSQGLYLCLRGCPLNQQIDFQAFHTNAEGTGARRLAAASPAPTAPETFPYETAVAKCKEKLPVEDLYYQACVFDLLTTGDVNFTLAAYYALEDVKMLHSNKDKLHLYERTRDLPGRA
Sequence of BMP5 (Homo sapiens) (P22003 317-454): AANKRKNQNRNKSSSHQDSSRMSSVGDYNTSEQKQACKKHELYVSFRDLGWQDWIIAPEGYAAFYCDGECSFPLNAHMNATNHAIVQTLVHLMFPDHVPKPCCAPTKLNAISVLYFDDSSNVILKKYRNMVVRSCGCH
Sequence of BMP7 (Homo sapiens) (P18075 293-431): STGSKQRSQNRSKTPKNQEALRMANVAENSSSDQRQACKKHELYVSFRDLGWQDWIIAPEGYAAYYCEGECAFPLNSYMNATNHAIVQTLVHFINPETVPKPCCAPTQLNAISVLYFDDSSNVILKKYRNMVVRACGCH
Sequence of RGMb.Fc ECD (Q7TQ33 49-415): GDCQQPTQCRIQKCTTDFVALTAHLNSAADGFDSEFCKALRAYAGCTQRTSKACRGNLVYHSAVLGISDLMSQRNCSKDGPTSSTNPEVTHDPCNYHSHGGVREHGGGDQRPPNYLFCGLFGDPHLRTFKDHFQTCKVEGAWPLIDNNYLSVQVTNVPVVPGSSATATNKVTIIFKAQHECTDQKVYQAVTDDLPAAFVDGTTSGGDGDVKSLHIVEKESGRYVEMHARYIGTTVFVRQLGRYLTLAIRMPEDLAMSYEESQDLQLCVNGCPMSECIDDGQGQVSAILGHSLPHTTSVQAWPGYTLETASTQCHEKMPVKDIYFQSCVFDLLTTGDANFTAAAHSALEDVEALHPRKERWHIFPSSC
Sequence of neogenin (Q92859 34-1105): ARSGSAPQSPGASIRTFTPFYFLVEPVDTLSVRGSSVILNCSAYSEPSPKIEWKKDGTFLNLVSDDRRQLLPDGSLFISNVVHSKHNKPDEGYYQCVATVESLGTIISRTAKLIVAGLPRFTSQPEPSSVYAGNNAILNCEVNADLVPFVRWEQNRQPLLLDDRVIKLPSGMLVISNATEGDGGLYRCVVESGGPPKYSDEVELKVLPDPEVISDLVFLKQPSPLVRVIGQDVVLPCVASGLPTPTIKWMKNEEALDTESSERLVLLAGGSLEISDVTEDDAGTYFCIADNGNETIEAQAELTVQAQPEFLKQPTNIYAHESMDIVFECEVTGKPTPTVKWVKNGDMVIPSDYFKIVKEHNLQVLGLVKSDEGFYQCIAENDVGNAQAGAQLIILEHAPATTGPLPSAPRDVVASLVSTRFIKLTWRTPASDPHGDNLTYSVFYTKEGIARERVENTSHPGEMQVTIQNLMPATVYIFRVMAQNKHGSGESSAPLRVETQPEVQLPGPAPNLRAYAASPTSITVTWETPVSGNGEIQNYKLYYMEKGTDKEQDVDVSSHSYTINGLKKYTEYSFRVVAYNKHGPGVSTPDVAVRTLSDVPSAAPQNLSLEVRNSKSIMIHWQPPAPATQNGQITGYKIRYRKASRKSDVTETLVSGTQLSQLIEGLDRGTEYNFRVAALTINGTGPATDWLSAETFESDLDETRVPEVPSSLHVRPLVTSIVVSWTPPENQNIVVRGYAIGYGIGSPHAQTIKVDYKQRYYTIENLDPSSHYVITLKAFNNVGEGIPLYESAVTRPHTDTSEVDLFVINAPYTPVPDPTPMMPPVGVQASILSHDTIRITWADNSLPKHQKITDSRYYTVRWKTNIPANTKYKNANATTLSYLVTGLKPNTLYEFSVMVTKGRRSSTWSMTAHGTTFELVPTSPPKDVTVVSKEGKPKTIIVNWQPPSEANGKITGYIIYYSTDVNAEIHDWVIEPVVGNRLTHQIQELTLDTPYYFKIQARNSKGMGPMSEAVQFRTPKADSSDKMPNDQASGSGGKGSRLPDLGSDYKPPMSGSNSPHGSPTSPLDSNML

| Substance | Kd [2] | Kd [4] | Kd [5] | other results |
| --- | --- | --- | --- | --- |
| HJV (from UniProt Q6ZVN8) | 8.1 nM | – | – | Kd [1]: 17 nM; Kd [3]: 20 nM |
| RGMa (from UniProt Q96B86) | 55 nM | 22 nM | – | – |
| RGMa.Fc ECD (from UniProt Q6PCX7) | – | 2.46 nM | 2.4 nM | Kd [6]: 1.4 nM |
| RGMb (from UniProt Q6NW40) | 28 nM | 5.5 nM | – | Kd [7]: 2.6 nM |
| RGMb.Fc ECD (from UniProt Q7TQ33) | – | – | 1.5 nM | – |
| neogenin (from UniProt Q92859) | – | – | – | Kd [8]: 2 nM |
